# Data published in paper PMC1618392, “The crystal structure of superoxide dismutase from Plasmodium falciparum” (BMC Structural Biology, 2006).
# B1: Plasmodium falciparum cytosolic iron superoxide dismutase (enzyme, Plasmodium falciparum (3D7), UniProt Q8IAY6 1-198, looked up)
# chain: MVITLPKLKYALNALSPHISEETLNFHYNKHHAGYVNKLNTLIKDTPFAEKSLLDIVKESSGAIFNNAAQIWNHTFYWDSMGPDCGGEPHGEIKEKIQEDFGSFNNFKEQFSNILCGHFGSGWGWLALNNNNKLVILQTHDAGNPIKDNTGIPILTCDIWEHAYYIDYRNDRASYVKAWWNLVNWNFANENLKKAMQK
# notes: cytosolic iron superoxide dismutase of Plasmodium falciparum (3D7), residues 1-198, amplified from genomic DNA; The calculated monomer mass is 23,799 Da; In the crystal Lys198 and the eight residues of the tag are not seen; also called PfFeSOD; PfSOD; source: E. coli BL21-CodonPlus, purified (Ni-NTA, Superdex 75 size exclusion)
# Biological target: the molecule itself
# Assay: AUC; sedimentation equilibrium, Beckman Optima XL/I, AN-50Ti rotor; 300 mM NaCl, 50 mM Tris-HCl, pH 7.5
protein,measurement,value
B1,stoichiometry N,2
